Results on four molecules are retold here after US20040063632A1 (Bayer, published 2004).

Sequences and labels used below:
B4: recombinant human soluble tissue factor (receptor, UniProt P13726 33-251, looked up)
chain: SGTTNTVAAYNLTWKSTNFKTILEWEPKPVNQVYTVQISTKSGDWKSKCFYTTDTECDLTDEIVKDVKQTYLARVFSYPAGNVESTGSAGEPLYENSPEFTPYLETNLGQPTIQSFEQVGTKVNVTVEDERTLVRRNNTFLSLRDVFGKDLIYTLYYWKSSSSGKKTAKTNTNEFLIDVDKGENYCFSVQAVIPSRTVNRKSTDSPVECMGQEKGEFRE
notes: extracellular domain; also called sTF; soluble TF

For series [1], the target named is full length TF in phospholipid vesicles (human, UniProt P13726 33-295). In words: cell-based or functional assay.
For series [2], the target named is T1, sTF/FVIIa complex (preformed from sTF and a 2.3 fold molar excess of FVIIai) (human, UniProt P13726 33-251; P08709 61-466, limits assumed, active site inhibited (FVIIai); the way of inhibition is not stated for this batch).
T1 construct: Complex used in the microcalorimeter cell; complete complexing of sTF verified by size exclusion chromatography; also called sTF/VIIa complex; FVIIa/TF complex
Kind of series: isothermal titration calorimetry. As for the experimental part:
(§1) FIG. 3. […] Isothermal titration calorimetry was performed using a MicroCal VP-ITC instrument. […] Data analysis was done using MicroCal Origin software. The data was fit to a single binding site.

Series [3] concerns the target B4. Kind of series: isothermal titration calorimetry (MicroCal VP-ITC), 141 µM scFv(TF)3e10 in the syringe, 10 µM sTF in the cell, OneSites model. As for the experimental part: as §1
(In general: In ITC the heat of successive injections is recorded.)

Series [4] deals with B4. In words: isothermal titration calorimetry (MicroCal VP-ITC), 10 uM sTF in the cell, 141 uM scFv in the syringe; microcalorimetry, free sTF as target. On the procedure: as §1
For series [5], the target named is T1, sTF/FVIIa complex (preformed from sTF …). In words: isothermal titration calorimetry (MicroCal VP-ITC), 1.2 uM complex in the cell, 65 uM scFv in the syringe; microcalorimetry, TF/FVIIa complex as target. As for the experimental part: as §1
Series [6] concerns the target B4. Kind of series: apparent KD from the sTF/FVIIa chromogenic activation assay (3 nM sTF, 2 nM FVIIa, antibody titrated, 4-parameter fit); sTF/FVIIa chromogenic assay, apparent KD.
Series [7] deals with T1, sTF/FVIIa complex (preformed from sTF …). In words: isothermal titration calorimetry (MicroCal VP-ITC), 65 µM scFv(TF)3e10 in the syringe, 1.2 µM preformed sTF/FVIIai complex in the cell, OneSites model. On the procedure:
as §1

A further series has as its target T2, Human FVIIa (human, UniProt P08709 61-466).
T2 construct: Bought protein; also called factor VIIa
T2 sequence (looked up): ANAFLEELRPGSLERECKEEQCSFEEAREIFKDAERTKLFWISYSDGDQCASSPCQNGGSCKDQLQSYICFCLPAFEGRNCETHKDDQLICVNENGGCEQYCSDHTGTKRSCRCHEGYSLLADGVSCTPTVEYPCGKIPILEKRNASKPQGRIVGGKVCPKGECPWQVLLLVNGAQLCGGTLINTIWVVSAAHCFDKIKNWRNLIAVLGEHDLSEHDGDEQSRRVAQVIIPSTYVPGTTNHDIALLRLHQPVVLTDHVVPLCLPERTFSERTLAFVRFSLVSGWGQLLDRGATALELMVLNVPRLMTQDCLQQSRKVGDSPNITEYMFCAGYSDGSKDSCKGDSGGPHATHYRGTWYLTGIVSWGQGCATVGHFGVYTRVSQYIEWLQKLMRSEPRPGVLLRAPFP
Kind of series: sTF/FVIIa activation assay: sTF titrated against 2 nM FVIIa without antibody, rate of cleavage of chromogenic substrate S-2266, apparent KD from a 4-parameter fit.

B1: scFV(TF)3e10 (dimer) (scFv)
scFv: EMAQVNLRESGGTLVQPGGSLRLSCAASGFSFTDAWMSWVRQAPGKELEWVSSISGSGGSTYYAGSVKGRFTISRDNSKNTLYLQMNSLRAEDTAVYYCARVLSLTDYYWYGMDVWGQGTLVTVSAGGGGSGAPNFMLTQPHSVSASPGKTVTISCTRSSGSVASYYVQWYQQRPGSSPTTVIYEDNHRPSGVPDRFSGSIDTSSNSASLTISGLKTEDEADYYCQSYDSNNLVVFGGGTKLTVLGAAAGAPVPYPDPLEPRAA
For B1, in series [1], the “IC50 for inhibition in the FX activation assay” value amounted to 0.44 nM.

B2: single chain anti-TF antibody scFv(TF)3e10 (scFv)
scFv: EMAQVNLRESGGTLVQPGGSLRLSCAASGFSFTDAWMSWVRQAPGKELEWVSSISGSGGSTYYAGSVKGRFTISRDNSKNTLYLQMNSLRAEDTAVYYCARVLSLTDYYWYGMDVWGQGTLVTVSAGGGGSGAPNFMLTQPHSVSASPGKTVTISCTRSSGSVASYYVQWYQQRPGSSPTTVIYEDNHRPSGVPDRFSGSIDTSSNSASLTISGLKTEDEADYYCQSYDSNNLVVFGGGTKLTVLGAAAGAPVPYPDPLEPRAA
notes: Human scFv from phage library HuPhaBL3
In the case of B2, the “fold higher affinity than for free sTF” value in series [2] was determined as 20 fold. In addition, the N came to 0.878 in series [3] and 1.14 in series [7]. Besides, the values for the ΔH in series [3] and in series [7] were -21.9 kcal/mol and -28.6 kcal/mol, respectively. Further, the ΔS in series [3] was -43.6; in series [7], -60. The Kd worked out at 600 nM in series [4], 33 nM in series [5] and 65.4 nM in series [6].

B3: scFv(TF)3e10-TMi456 fusion protein (other)
chain: EMAQVNLRESGGTLVQPGGSLRLSCAASGFSFTDAWMSWVRQAPGKELEWVSSISGSGGSTYYAGSVKGRFTISRDNSKNTLYLQMNSLRAEDTAVYYCARVLSLTDYYWYGMDVWGQGTLVTVSAGGGGSGAPNFMLTQPHSVSASPGKTVTISCTRSSGSVASYYVQWYQQRPGSSPTTVIYEDNHRPSGVPDRFSGSIDTSSNSASLTISGLKTEDEADYYCQSYDSNNLVVFGGGTKLTVLGAAAGGGGSGGGGSGGGGSVEPVDPCFRANCEYQCQPLNQTSYLCVCAEGFAPIPHEPHRCQMFCNQTACPADCDPNTQASCECPEGYILDDGFICTDIDECENGGFCSGVCHNLPGTFECICGPDSALAGQIGTDCAAAGAPVPYPDPLEPRAA
Regarding B3, in series [1], the “IC50 of FX activation by the FVIIa/TF complex” value came out at 0.5 nM and the “TM cofactor activity (protein C activation assay on TF-rich surface)” value was more than 5 fold.
With B4, the Kd with Human FVIIa stood at 13 nM.
